Experimental data from PMC3988174.

Legend:
[1] = target: atToc159 G-domain bait (Arabidopsis thaliana) (UniProt O81283); assay: two-hybrid; pairwise split-ubiquitin yeast two-hybrid of isolated NubG-preys with Toc159G, Toc132G or Toc132AG bait in NMY51; growth on SD-LWHA (3-AT) and quantitative β-Gal assay, activity relative to a reference bait set to 100%
[2] = target: atToc132 G-domain bait (Arabidopsis thaliana) (UniProt Q9SLF3); assay: as above
Chain of atToc132 G-domain bait (Arabidopsis thaliana) (Q9SLF3 456-794): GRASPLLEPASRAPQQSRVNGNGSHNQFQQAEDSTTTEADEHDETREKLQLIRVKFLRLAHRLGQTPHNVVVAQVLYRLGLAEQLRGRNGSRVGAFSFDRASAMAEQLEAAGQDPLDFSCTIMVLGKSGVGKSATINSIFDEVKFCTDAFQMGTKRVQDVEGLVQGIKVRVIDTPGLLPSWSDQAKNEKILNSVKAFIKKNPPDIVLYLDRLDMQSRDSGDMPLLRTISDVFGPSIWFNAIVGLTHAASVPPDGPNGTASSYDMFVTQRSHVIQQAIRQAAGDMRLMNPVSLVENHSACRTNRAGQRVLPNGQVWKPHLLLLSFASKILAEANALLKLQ

Chain of atToc159 G-domain bait (Arabidopsis thaliana) (O81283 728-1092): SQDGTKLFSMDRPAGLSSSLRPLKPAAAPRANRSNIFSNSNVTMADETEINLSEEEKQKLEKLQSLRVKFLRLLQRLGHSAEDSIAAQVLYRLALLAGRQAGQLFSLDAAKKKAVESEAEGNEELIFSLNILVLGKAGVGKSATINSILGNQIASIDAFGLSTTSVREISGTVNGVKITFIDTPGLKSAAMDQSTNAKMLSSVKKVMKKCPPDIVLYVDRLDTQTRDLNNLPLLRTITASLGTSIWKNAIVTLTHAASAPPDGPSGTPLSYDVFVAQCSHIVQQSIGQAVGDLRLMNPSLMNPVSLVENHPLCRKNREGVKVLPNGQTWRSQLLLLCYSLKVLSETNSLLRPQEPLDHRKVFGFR

Row | Binder | % increase in strength of interaction (β-Gal) with Toc159G against Toc132G [1] [%] | other results
1 | Photosystem II subunit X (natural protein) MASTSAMSLVTPLNQTRSSPFLKPLPLKPSKALVATGGRAQRLQVKALKMDKALTGISAAALTASMVIPEIAEAAGSGISPSLKNFLLSIASGGLVLTVIIGVVVGVSNFDPVKRT | 24 | 
2 | Light-Harvesting Chlorophyll-Protein Complex I Subunit A4 (natural protein) MATVTTHASASIFRPCTSKPRFLTGSSGRLNRDLSFTSIGSSAKTSSFKVEAKKGEWLPGLASPDYLTGSLAGDNGFDPLGLAEDPENLKWFVQAELVNGRWAMLGVAGMLLPEVFTKIGIINVPEWYDAGKEQYFASSSTLFVIEFILFHYVEIRRWQDIKNPGSVNQDPIFKQYSLPKGEVGYPGGIFNPLNFAPTQEAKEKELANGRLAMLAFLGFVVQHNVTGKGPFENLLQHLSDPWHNTIVQTFN |  | % decrease in strength of interaction (β-Gal) with Toc159G against Toc132G [1]: -38.5%
3 | Ferredoxin-thioredoxin reductase subunit A (natural protein) MNLQAVSCSFGFLSSPLGVTPRTSFRRFVIRAKTEPSEKSVEIMRKFSEQYARRSGTYFCVDKGVTSVVIKGLAEHKDSYGAPLCPCRHYDDKAAEVGQGFWNCPCVPMRERKECHCMLFLTPDNDFAGKDQTITSDEIKETTANM |  | % increase in strength of interaction (β-Gal) with 132G against 159G [2]: 45.2%
4 | Protochlorophyllide oxidoreductase B (natural protein) MALQAASLVSSAFSVRKDAKLNASSSSFKDSSLFGASITDQIKSEHGSSSLRFKREQSLRNLAIRAQTAATSSPTVTKSVDGKKTLRKGNVVVTGASSGLGLATAKALAETGKWNVIMACRDFLKAERAAKSVGMPKDSYTVMHLDLASLDSVRQFVDNFRRTETPLDVLVCNAAVYFPTAKEPTYSAEGFELSVATNHLGHFLLARLLLDDLKKSDYPSKRLIIVGSITGNTNTLAGNVPPKANLGDLRGLAGGLNGLNSSAMIDGGDFDGAKAYKDSKVCNMLTMQEFHRRFHEETGVTFASLYPGCIASTGLFREHIPLFRALFPPFQKYITKGYVSETESGKRLAQVVSDPSLTKSGVYWSWNNASASFENQLSEEASDVEKARKVWEISEKLVGLA | 40.5 | 
